Positions count from the first letter of the chain named.
B1: SEQ ID NO 11 (other, phi29)
chain: LNDIFNAQKIEWHHHHHHHHHHHMKHMPRKMYSCDFETTTKVEDCRVWAYGYMNIEDHSEYKIGNSLDEFMAWVLKVQADLYFHNLKFDGAFIINWLERNGFKWSADGLPNTYNTIISRMGQWYMIDICLGYKGKRKIHTVIYDSLKKLPFPVKKIAKDFKLTVLKGDIDYHKERPVGYKITPEEYAYIKNDIQIIAEALLIQFKQGLDRMTAGSDSLKGFKDIITTKKFKKVFPTLSLGLDKEVRYAYRGGFTWLNDRFKEKEIGEGMVFDVNSLYPAQMYSRLLPYGEPIVFEGKYVWDEDYPLHIQHIRCEFELKEGYIPTIQIKRSRFYKGNEYLKSSGGEIADLWLSNVDLELMKEHYDLYNVEYISGLKFKATTGLFKDFIDKWTYIKTTSEGAIKQLAKLMLNSLYGKFASNPDVTGKVPYLKENGALGFRLGEEETKDPVYTPMGVFITAWARYTTITAAQACYDRIIYCDTDSIHLTGTEIPDVIKDIVDPKKLGYWAHESTFKRAKYLRQKTYIQDIYMKEVDGKLVEGSPDDYTDIKFSVKCAGMTDKIKKEVTFENFKVGFSRKMKPKPVQVPGGVVLVDDTFTIK
modifications: biotin on the lysine of the biotinylation peptide (in-vivo biotinylation by biotin ligase)
notes: N-terminus-biotinylation peptide-His(10)-phi29 pol-C-terminus; expressed in E. coli co-expressing biotin ligase, Ni-NTA purified
B2: SEQ ID NO 3 (other, phi29)
chain: B1 chain with I4F
modifications: biotin on the lysine of the biotinylation peptide (in-vivo biotinylation by biotin ligase)
notes: as for B1
B3: SEQ ID NO 4 (other, phi29)
chain: B1 chain with L1I, I4L, N6S
modifications: biotin on the lysine of the biotinylation peptide (in-vivo biotinylation by biotin ligase)
notes: as for B1
B4: SEQ ID NO 5 (other, phi29)
chain: B1 chain with L1I, N6E
modifications: biotin on the lysine of the biotinylation peptide (in-vivo biotinylation by biotin ligase)
notes: as for B1
B5: SEQ ID NO 6 (other, phi29)
chain: B1 chain with D3L, N6E
modifications: biotin on the lysine of the biotinylation peptide (in-vivo biotinylation by biotin ligase)
notes: as for B1
B6: SEQ ID NO 7 (other, phi29)
chain: B1 chain with I4L, N6E
modifications: biotin on the lysine of the biotinylation peptide (in-vivo biotinylation by biotin ligase)
notes: as for B1
B7: SEQ ID NO 8 (other, phi29)
chain: B1 chain with I4F, N6E
modifications: biotin on the lysine of the biotinylation peptide (in-vivo biotinylation by biotin ligase)
notes: as for B1
B8: SEQ ID NO 10 (other, phi29)
chain: B1 chain with N6H
modifications: biotin on the lysine of the biotinylation peptide (in-vivo biotinylation by biotin ligase)
notes: as for B1
B9: SEQ ID NO 12 (other, phi29)
chain: B1 chain with N6S
modifications: biotin on the lysine of the biotinylation peptide (in-vivo biotinylation by biotin ligase)
notes: as for B1

Biological target: T1, streptavidin (UniProt P22629 37-163, limits assumed)
T1 construct: Used at a 2-fold molar excess over the fusion protein
Test: HPLC after mixing the purified fusion protein with a 2-fold molar excess of streptavidin
Description: Each of the DNA sequences encoding the affinity peptides was added individually to the 5′ terminus of a His(10)-tagged phi29 DNA polymerase gene such that the polypeptide expressed from each construct was a fusion protein consisting of: N-terminus-biotinylation peptide-His(10)-phi29 pol-C-terminus. Each gene was expressed in E. coli cells co-expressing biotin ligase in culture medium containing biotin. These conditions are known to effect the in-vivo biotinylation of biotinylation peptides. Proteins were purified using Ni-NTA columns and then mixed with a 2-fold molar excess of streptavidin under conditions known to effect binding of streptavidin to biotinylated fusion proteins.
The degree of biotinylation of each protein was assessed by HPLC. […] None of the biotinylation peptides affected the polymerase activity when tested in a branching fraction assay performed, for example, as described in U.S. patent application No. 2010/0112645.

T1 sequence (P22629 37-163 limits assumed): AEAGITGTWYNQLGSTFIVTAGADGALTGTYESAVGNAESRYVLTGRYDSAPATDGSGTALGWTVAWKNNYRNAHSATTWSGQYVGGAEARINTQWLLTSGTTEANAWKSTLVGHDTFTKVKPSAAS

Binder	percent bound to streptavidin [%]
B1	~100
B2	~100
B3	~100
B4	~100
B5	~100
B6	~100
B7	~100
B8	~100
B9	~100
